Assay results taken from publication PMC3741918 (FEBS Open Bio, 2013).

T1: human frataxin variant hFXN56–210 (human, UniProt Q16595 56-210)
T1 sequence (looked up): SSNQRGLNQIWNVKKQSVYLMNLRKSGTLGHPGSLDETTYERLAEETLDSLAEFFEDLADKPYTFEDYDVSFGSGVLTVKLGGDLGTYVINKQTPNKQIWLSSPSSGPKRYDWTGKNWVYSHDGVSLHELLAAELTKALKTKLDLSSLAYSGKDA

B1: peptide hFXN56–81 (peptide)
peptide: SSNQRGLNQIWNVKKQSVYLMNLRKS

Columns and labels:
[1] = target: human frataxin variant hFXN56–210 (human) (UniProt Q16595); assay: SEC
[2] = target: T1, human frataxin variant hFXN56–210; assay: aggregation assay

| Molecule | percent of the protein in the oligomeric state [1] [%] | binding result [2] |
| --- | --- | --- |
| human frataxin variant hFXN56–210 (from UniProt Q16595 56-210) (domain or fragment) | 60 |  |
| B1 |  | binds |
